Measurements: publication PMC4739061
pKd: −log10 of the molar value.

Experiments:
[1] = biological target: GyrB.FGFR1KD.TC, activated (incubated with ATP, autophosphorylated) (UniProt P11362); experiment: FRET or BRET; TR-FRET, lifetime of donor mTFP in a quartz cuvette; GyrB.FGFR1KD.TC (1 uM) tagged with FlAsH-EDT2 and mTFP.nSH2 (1 uM); 40 mM Tris-HCl pH 8.0, 20 mM MgCl2, 20 mM NaCl, 100 uM TCEP, 100 uM Na3VO4; with 50 uM ATP, ambient conditions, 30 min
[2] = biological target: FGFR1 kinase domain and tail (Homo sapiens) (UniProt P11362); details: cited from earlier work

| Substance | decrease in donor lifetime [1] [ps] | pKd [2] |
| --- | --- | --- |
| mTurquoise.nSH2 fusion protein (mTFP.nSH2) (domain or fragment) | 500 | – |
| PLCγ1 nSH2 (from UniProt P19174) | – | 8.30 |
